Measurements reported in patent US20230212275.

B1: recombinant CFI (Complement Technology, Inc, A138) (protein)
chain: KVTYTSQEDLVEKKCLAKKYTHLSCDKVFCQPWQRCIEGTCVCKLPYQCPKNGTAVCATNRRSFPTYCQQKSLECLHPGTKFLNNGTCTAEGKFSVSLKHGNTDSEGIVEVKLVDQDKTMFICKSSWSMREANVACLDLGFQQGADTQRRFKLSDLSINSTECLHVHCRGLETSLAECTFTKRRTMGYQDFADVVCYTQKADSPMDDFFQCVNGKYISQMKACDGINDCGDQSDELCCKACQGKGFHCKSGVCIPSQYQCNGEVDCITGEDEVGCAGFASVTQEETEILTADMDAERRRIKSLLPKLSCGVKNRMHIRRKRIVGGKRAQLGDLPWQVAIKDASGITCGGIYIGGCWILTAAHCLRASKTHRYQIWTTVVDWIHPDLKRIVIEYVDRIIFHENYNAGTYQNDIALIEMKKDGNKKDCELPRSIPACVPWSPYLFQPNDTCIVSGWGREKDNERVFSLQWGEVKLISNCSKFYGNRFYEKEMECAGTYDGSIDACKGDSGGPLVCMDANNVTYVWGVVSWGENCGKPEFPGVYTKVANYFDWISYHVGRPFISQYNV

Legend:
[1] = molecular target: C3b (Complement Technology, Inc, A113) (UniProt P01024)
[2] = molecular target: C3b (Complement Technology, Inc, A113), P01024
C3b (Complement Technology, Inc, A113), P01024, sequence (P01024 whole entry, looked up): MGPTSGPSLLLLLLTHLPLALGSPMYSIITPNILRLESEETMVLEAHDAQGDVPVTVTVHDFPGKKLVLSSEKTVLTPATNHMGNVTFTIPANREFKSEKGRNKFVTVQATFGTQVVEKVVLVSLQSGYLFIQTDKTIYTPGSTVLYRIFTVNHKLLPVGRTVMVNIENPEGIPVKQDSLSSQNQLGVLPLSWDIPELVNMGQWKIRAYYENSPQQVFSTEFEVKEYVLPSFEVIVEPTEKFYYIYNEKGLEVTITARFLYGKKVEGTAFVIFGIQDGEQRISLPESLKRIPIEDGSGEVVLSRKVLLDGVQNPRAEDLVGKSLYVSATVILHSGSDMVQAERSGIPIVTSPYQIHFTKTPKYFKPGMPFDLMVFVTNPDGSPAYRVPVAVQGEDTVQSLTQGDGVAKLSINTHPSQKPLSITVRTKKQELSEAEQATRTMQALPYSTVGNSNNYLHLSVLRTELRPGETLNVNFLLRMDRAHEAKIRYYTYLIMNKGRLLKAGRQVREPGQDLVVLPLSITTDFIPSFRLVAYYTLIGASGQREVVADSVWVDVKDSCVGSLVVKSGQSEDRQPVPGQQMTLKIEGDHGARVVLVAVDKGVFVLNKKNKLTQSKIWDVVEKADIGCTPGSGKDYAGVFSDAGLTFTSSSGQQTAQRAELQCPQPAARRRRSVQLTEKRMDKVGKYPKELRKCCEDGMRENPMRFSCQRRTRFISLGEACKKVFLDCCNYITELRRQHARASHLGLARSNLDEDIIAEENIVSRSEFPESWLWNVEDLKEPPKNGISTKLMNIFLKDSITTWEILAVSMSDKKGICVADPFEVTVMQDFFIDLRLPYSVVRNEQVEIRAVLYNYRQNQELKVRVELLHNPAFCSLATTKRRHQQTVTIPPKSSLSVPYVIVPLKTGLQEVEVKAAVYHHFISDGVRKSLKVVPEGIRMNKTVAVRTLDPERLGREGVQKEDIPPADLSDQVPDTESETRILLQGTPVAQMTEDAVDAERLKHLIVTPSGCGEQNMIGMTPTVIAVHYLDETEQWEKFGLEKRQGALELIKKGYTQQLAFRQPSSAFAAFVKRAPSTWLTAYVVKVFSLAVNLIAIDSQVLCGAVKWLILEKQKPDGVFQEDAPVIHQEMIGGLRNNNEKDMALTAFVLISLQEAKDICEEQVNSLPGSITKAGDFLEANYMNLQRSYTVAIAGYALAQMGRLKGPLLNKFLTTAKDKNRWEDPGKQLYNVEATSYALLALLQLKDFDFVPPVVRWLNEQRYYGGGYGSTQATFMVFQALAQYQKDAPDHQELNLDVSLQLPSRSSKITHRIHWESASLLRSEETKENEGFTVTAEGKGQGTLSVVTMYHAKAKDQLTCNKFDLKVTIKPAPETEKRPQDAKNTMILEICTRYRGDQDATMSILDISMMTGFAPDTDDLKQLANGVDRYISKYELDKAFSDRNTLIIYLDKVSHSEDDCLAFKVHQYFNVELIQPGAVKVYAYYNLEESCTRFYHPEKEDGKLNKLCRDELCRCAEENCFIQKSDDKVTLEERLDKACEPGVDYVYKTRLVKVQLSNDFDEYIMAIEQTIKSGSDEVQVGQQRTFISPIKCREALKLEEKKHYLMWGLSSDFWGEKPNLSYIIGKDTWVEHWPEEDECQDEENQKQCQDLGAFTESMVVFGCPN

Molecule	C3b cleavage assay, iC3b ELISA [1]	C3b cleavage assay, iC3b ELISA [2]
CFI secreted by HEK293 cells transduced with AAV2 bicistronic vector RC313 (coCFI-F2A-coAflibercept)	CFI and FHL1 expressed from all bicistronic vectors is functional and can facilitate breakdown of C3b to iC3b	–
CFI secreted by HEK293 cells transduced with AAV2 bicistronic vector RC289 (coAflibercept-F2A-coCFI)	CFI and FHL1 expressed from all bicistronic vectors is functional and can facilitate breakdown of C3b to iC3b	–
B1	–	C3b incubated with recombinant CFI and FHL1 served as a positive control; C3b breakdown requires the presence of CFI and FHL1
